According to the DeepSol protein solubility set:

Test: soluble on expression in E. coli; label from the status in PepcDB or PDB records

Row | Sequence | soluble on expression in E. coli
1 | MGGIYRLSLKSTEATAERLSCDTRCNYEDRDLAYSPDGRWLAIARRFSNISEDIFIRDLASAHEKRLTQGLEDIRGLSWTPDSQALVFATEDSGSSNGFTLDINTAQIRSLDVEGMSYPSSVSAEGELVYHQYHRQFQMAYFSLGDKVPGSLFPLLYSGVSHRNPDYSPEAKRIVFVSSETGYNEIWTSDINGQKLEQLTQLKSRVAYPRWSPDGSRIAFIAPDDRNEGNRIFILDLTNKNITALASSYHNHGRPSWNWQGTAVLASTADGITEFYLDNRAPRVISSLSMAVGFAKSATELVFSRDGENGLWQINLTQPEHVEQLISTDAFRAGNNWVLTASGVYFKSSNGHEQLLNYWEASSQQVTSLLRVPRSSLSGFGSMTYIPEANRLVMTLDGFPQRDIILLKHKLLKLEHHHHHH | soluble
2 | MQLRKMQTVKKEQASLDASSNVDKMMVLNSALTEVSEDSTTGEELLLSEGSVGKNKSSACRRKREFIPDEKKDAMYWEKRRKNNEAAKRSREKRRLNDLVLENKLIALGEENATLKAELLSLKLKFGLISSTAYAQEIQKLSNSTAVYFQDYQTSKSNVSSFVDEHEPSMVSSSCISVIKHSPQSSLSDVSEVSSVEHTQESSVQGSCRSPENKFQIIKQEPMELESYTREPRDDRGSYTASIYQNYMGNSFSGYSHSPPLLQVNRSSSNSPRTSETDDGVVGKSSDGEDEQQVPKGPIHSPVELKHVHATVVKVPEVNSSALPHKLRIKAKAMQIKVEAFDNEFEATQKLSSPIDMTSKRHFELEKHSAPSMVHSSLTPFSVQVTNIQDWSLKSEHWHQKELSGKTQNSFKTGVVEMKDSGYKVSDPENLYLKQGIANLSAEVVSLKRLIATQPISASDSG | soluble
3 | MGSDKIHHHHHHMLDITMFSKADSVKGQGVGSAYLELMRLLRTHWQDEFNIKVNRYGRSAVSHYHTVNPMFYLSTFMPNRGRKIGYVHFLPETLEGSLKLPRPFQMIFNRYLISFYKRMDHIVVVNPTFIPKLEAYHIKRADVTYIPNFVSKREFYEMTKAKQLRLRQQYGYDQNKFMIIGTGQIQDRKGVPDFITLAKQNPDIQFVWAGGFSFGRITDGYQELKQVVDNPPANLSFPGIVPREKLVDYYNMADLFLLPSYNELFPMSVLEAFSCGTPVLLRDLDLYRAIIDGYYQAASDVDDMQRQIDQLSHNPAGLQFLHDKAVLAAQD | not soluble
4 | ALAETVSDFRLPNGLEVVVIEDHRAPVVTHMVWYRVGAADEPPGHSGIAHFLEHLMFKGTDEMSAGEFSATVEAQGGDDNAFTSWDYTAYFQRVAADRLDLMMKMEADRMRDLQMTEEDVRTERQVVLEERSQRTDSDPGAVFSEQSRAAAYLNHPYGIPIIGWRHEIEQLGREDAFSFYRTYYAPNNAILVVAGDVDPAEVRRMAEEHYGALEPTP | not soluble
5 | MGSDKIHHHHHHMQFGAKPLFENISVKFGGGNRYGLIGANGCGKSTFMKILTGDLEPSSGNVSLDVNERMGKLNQDQFAYEKFSVVDTVIMGHRELWKVKQERDRIYSLPEMTEEDGIKVSELEMEFAEMDGYTAESRAGDLLLGVGIGTEQHFGLMSQIAPGFKLRVLLAQALFSDPDLLLLDEPTNNLDIDTIRWLQDMLNQRNSTMVIISHDRYFLNSVCTHMADLDYGELRVYPGNYDEYMMAATQARERLQSDNAKKKAQIAELQTFVARFSANASKAKQATSRAKQIDKIKLDDIKASSRVNPFIRFEQEKKLFRNALIVENLAKGYDKPLFSNLNLMVEVGERIAILGENGVGKTTLMRTLVHDIPQDEGTIQWSENANIGYYAQDHEADFANDMTLFDWMSQWRKPEDDDQSVRAILGRMLFGSDDIKKSVTVLSGGEKGRMYFGKLIMQKANILMLDEPTNHMDMESIESLNNALEMYEGTLMFVSHDRAFVSSLATRILEVTANGVNDFKGTYDEFLRSKGIDA | not soluble
6 | MGSDKIHHHHHHAELPAGTVIDKANLDKIKSDTFDGHTIASLLTDKLEWQIRNTGLKIPLGHAKPVQLDPKYIEATKKNAGKAQFDEKSREVTGWVAGIPFPEVSQNDPFAGDKLVWNFYYASPEGDVINNKATFLMISGDKGLESTQDWLFERYYMKGRISGDKPVLGDGSILSKTLFVATAPEDIKGVGTFTIRYDSPKLEDSWAYIKSARRTRRLSGGAWMDPVGGLDVLNDDIYVWNARPSWYPKVKLVGRRWILAISDAKLGYNASKKGTPEEWKTVDLSNPPYWNPVQTWQPREVWVIEGTPPAEHPYGKKVVYMDVNYPRVYMGEAYDKKGEFWKFINFHMTPSVGEDGTKYSSSIQGDIIDFKARHASIYLFRGYKLNEAKIKETDMSYSALESIAK | not soluble
7 | MGHHHHHHSHTKSARVKGLSFHPKRPWILTSLHNGVIQLWDYRMCTLIDKFDEHDGPVRGIDFHKQQPLFVSGGDDYKIKVWNYKLRRCLFTLLGHLDYIRTTFFHHEYPWILSASDDQTIRVWNWQSRTCVCVLTGHNHYVMCAQFHPTEDLVVSASLDQTVRVWDISGLRKKNLSPGAVESDVRGITGVDLFGTTDAVVKHVLEGHDRGVNWAAFHPTMPLIVSGADDRQVKIWRMNESKAWEVDTCRGHYNNVSCAVFHPRQELILSNSEDKSIRVWDMSKRTG | soluble
8 | MSLWKNFNFVTKYFTKRRQRYITKTIAMNQQEFQLREITYQDIKDLLAIEREVYAGELPWTMSAFMAELGSKAPHLYLLAAINGKTVGFIGCRIQGTDAHITNVAVHTAYQGLGLGRSLIEETRIFAKKNRCETLSLEVRMSNVKAQRLYRKIGFVSQTVKKGYYDENNEDALEMIIDLKEEEGHHHHHH | soluble
9 | MNKEEIILSAKNWMHSHFENETTGHDWSHIKRVWKLSKEIQSKEGGDLFTIELAALFHDYSDIKLTTDEQEATKTLINWMETKEIPSELIKKIIRIIQSVSFKKGKNTFKALTIEEKIVQDADRLDAIGAIGIARTFTYGGAHNREIANQNNPKNTTLQHFYDKLLLIKDQLNTETAKTIAKEKQKIMQDFIQALEKELKVLEHHHHHH | soluble
10 | KMPSPYSHKEFVKEIAPTAQKLSKIYGVRSSIIIGQAALDSHFGSTLLASKYHNLFSIEASPGQGAVRLKSHEYKNGRWQEVTNRYLVYESWKESLYDYMAILHGNKIWDKALYTTMMTSSGYKTVARALQAAGFNSDPNYADKLIAVIEENNL | soluble
11 | KASDQFIVYRASIAGPTMIAGYHWFNERGRDILIALPGLALVPQRFDLAKGVLRTFRHYYRHGLMPNVFPDADGEPLYNSIDAALWWVETLGLYLEATQDWEFLAEQFSVVQQIHKAFVGGTHYNIQVDAIDGLISWDARGVALTWMDVVIGANPVTPRHGKPVEINALWYSALCWLSRWAERLSSLELGDPVRLTKQAQRYALQAEKVKTSLQKFWNPQLGYLYDTIEPDDRRNFQIRPNAVLALSLHHCGFSAQQGSQILDLATISLLTPYGLRSLDPGDPEYKGRYEGNQEQRDRAYHQGTVWGWLIGPYIRAWQRFYPEQSLPFDWQPLLDHFLSGACLGSISEIFDGDAPHTPRGAIAQAWSVAEIIRHIQK | not soluble
12 | MAHHHHHHMAESAVLTPLSARHTVSPRDRSALATGISTLSSPTEETIEVDGATTTPSLPPETRVNVTEKLSDDGAERWPGDPEPPSQGCVASSSAANAHLPISSPALVRDEGHAHITAADYADRQRLLYHITYLSTQLQRAQLQVEDLTRTVCVLRGAVGDSAAATVAKAAVKEDATSAAVLAAKEERDVHAALQASLALFDPVIAQTQIYRLDDALAQVGLLREAELAQLRKANAALQDHRTFVSRLSEELAQLRSKTATLEQEKQRTETQLTAAVLEVEQLRYEERRLNNRVAGLEELAQDGTWMSNVRVVSAAAASTQASVSQQQPLVRLEREEQLARQALLLHVFWDPVLIAFDAGLTWLSDSAALQAKGSAAQEQPVAPGGAKAFVGERDLISLAQAGILVETPALPTDADLLLLQRQQEEVTQLRSRVQLLQERNRVGQLENERLQFLYEGEVRRNERMAKDHAAQLQQAYDEVVRDRQYIMNKLKQEVEDQIRLAYEDGRAYEQSRAKSRRSQKAFRAGNAVL | not soluble
13 | MKPRETKLLGSIREAIEKTGLKDGMTISFHHHFREGDYVMNLVLAEIAAMGLKNISIAPSSIANVHEPLIEHIKNGVVTNITSSGLRDKVGAAISAGIMENPVVIRSHGGRARAVAAGDIHIDVAFLGAPSSDAYGNANGTKGKATCGSLGYAMVDAKYADQVVIITDTLVPYPNTPISIPQTDVDYVVEIDAIGDPDGIAKGATRFTKNPKELLIAEYAAKIITHSPYYKEGFSFQTGTGGSSLAVTRFMREQMLKDGIKASFALGGITNAMVELLEEGLVEKIIDVQDFDHPSAISLGENANHYEIDANMYASPLSKGAVINQLDTAILSALEVDTDFNVNVITGSDGVIRGASGGHSDTSMACKMSLVIAPLVRGRIPTIVEQVNTVVTPGTSVDVVVTEVGIAINPKRTDLIDCFKTLDVPQFTLEELKDKAYNIVGTPEPIKYGDKVVALIEYRDGSLIDVVRNVLEHHHHHH | soluble
14 | MDALAIINKYYPEDNELKHILLAHSRSVADKALWIAGKHPELNLDKQFLEEAAMLHDIGIFMTDAEGICCFGSYPYICHGYLGADLMRKEGFPRHALVCERHTGAGMSLQSIIDQQLPVPHRNMVPVSLEEQVICFADKFFSKTHLDREKSVEKALKSISRYGEDGIIRFNHWCECFL | soluble
15 | MRHCGWLLGLLSLFSLATHASDWQEIKNEAKGQTVWFNAWGGDTAINRYLDWVSGEMKTHYAINLKIVRLADAADAVKRIQTEVAAGRKTGGSVDLLWVNGENFRTLKEANLLQTGWAETLPNWRYVDTQLPVREDFSVPTEGAESPWGGAQLTFIARRDVTLQPPQTPQALLEFAKANPGTVTYPRPPDFTGTAFLEQLLIMLTPDPTALKEAPDDATFARVTAPLWQYLDALHPYLWREGKDFPPSPARMDALLKANTLRLSLTFNPAHAQQKIASGDLPASSYSFGFREGMIGNVHFVTIPANANASAAAKVVANFLLSPDAQLRKADPAVWGDPSVLDPQKLPDGQRESLQSRMPQDLPPVLAEPHAGWVNALEQEWLHRYSTH | not soluble
16 | MVHYKVSYFPIRGAGEIARQILAYAGQDFEDNRIPKEEWPAVKPSTPFGQLPLLEVDGKVLAQSHAIARYLARQFGINGKCAWEEAQVNSVADQFKDYLNEVRPYFMVKMGFAEGDLDALAKDVFLPGFKKHYGFFANFLKSAGSGYLVGDSLTFVDLLVAQHTADLLAANAALLDEFPQFKAHQEKVHSNANIKKWLETRPVTPF | not soluble
17 | MSLAATALLEAGLARVLFYPTLLYTLFRGKVPGRAHRDWYHRIDPTVLLGALPLRSLTRQLVQDENVRGVITMNEEYETRFLCNSSQEWKRLGVEQLRLSTVDMTGIPTLDNLQKGVQFALKYQSLGQCVYVHCKAGRSRSATMVAAYLIQVHKWSPEEAVRAIAKIRSYIHIRPGQLDVLKEFHKQITARATKDGTFVISKTEGHHHHHH | soluble
18 | MSLTMDVPPTIHVPLPPTSYPAFDAAIFTDIGGRKHQEDRFTLCPQLVPGRDDCAFFGVFDGTVGDFASENVKDLVVPQLISSPAWQEVTEMLRSDVPATEVDEKLPQLLDQAVDDMYKNADNELVKMCEQLNKDYASSTSVTAVLAKGFVAVGHLGDSRIAMGVETPNGLNCEFLTVDHKPDMPHEKLRIMRNGGSVEYLHNHNNKPFIRGGDFSFRKSRGEQPMQLQYSRAFGGKDLKMYGLSNQPDVRVVRVTPQHRVMILATDGLWDVMSAAQAVEIAMQARQEGRNPAQALVEMTLAEQQSRNQSADNITAMTVFFKKTDEGHHHHHH | soluble
